Results: patent publication US20250066478A1 (IBIO, published 2025)

Biological target: T1, MUC16 membrane-proximal region (UniProt Q8WXI7 13810-14451)
T1 construct: domain: membrane-proximal region
T1 sequence: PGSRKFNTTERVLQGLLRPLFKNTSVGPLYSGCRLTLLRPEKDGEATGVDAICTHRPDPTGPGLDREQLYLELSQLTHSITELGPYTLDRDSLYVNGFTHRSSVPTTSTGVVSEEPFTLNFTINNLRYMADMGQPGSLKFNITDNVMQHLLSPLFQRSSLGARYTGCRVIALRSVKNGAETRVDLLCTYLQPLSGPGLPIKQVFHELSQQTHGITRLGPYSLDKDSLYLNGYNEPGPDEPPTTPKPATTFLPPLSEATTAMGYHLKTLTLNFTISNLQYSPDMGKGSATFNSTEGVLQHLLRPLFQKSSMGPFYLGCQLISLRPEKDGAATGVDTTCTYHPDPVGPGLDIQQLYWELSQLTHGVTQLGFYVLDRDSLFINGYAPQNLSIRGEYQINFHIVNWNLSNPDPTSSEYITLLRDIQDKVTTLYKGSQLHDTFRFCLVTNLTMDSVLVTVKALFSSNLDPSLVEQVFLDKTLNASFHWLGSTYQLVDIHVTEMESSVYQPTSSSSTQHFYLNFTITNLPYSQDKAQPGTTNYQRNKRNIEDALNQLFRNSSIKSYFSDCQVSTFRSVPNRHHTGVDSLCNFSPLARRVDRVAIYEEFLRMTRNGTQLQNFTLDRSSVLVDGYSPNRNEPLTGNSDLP
Assay: FIG. 7A; method not named in the legend (Octet BLI or flow cytometry per the methods)

binding result: no binding
B1: 21G6 long linker mask on VH domain (antibody)
VH: NFTLDRSSVLVDGYSPNRNEPLTGNSDLPGGGGSSGGPGPAGMKGLPGSQVQLQESGPGLVKPSQTLSLTCTVSGYSITSDYAWNWIRQPPGKGLEWIGYISYSGSTIYNPSLKSRISISVDTSKNQFSLKLNSVTAADTAVYYCATLGLDYWGQGTLVTVSS
VL: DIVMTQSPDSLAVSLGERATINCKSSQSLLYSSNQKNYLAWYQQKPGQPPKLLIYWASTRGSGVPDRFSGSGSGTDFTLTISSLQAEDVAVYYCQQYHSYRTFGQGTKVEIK
notes: the methods give the format as IgG or scFv
